Patent CN115960237A

Molecular target: OXA-48酶抗原 (recombinant OXA-48 enzyme antigen) (UniProt Q6XEC0)
Experiment: indirect ELISA, OXA-48 antigen coated at 100 ng per well, goat anti-rabbit IgG-HRP, OD450

UniProt Q6XEC0, sequence (Q6XEC0 23-265 limits assumed): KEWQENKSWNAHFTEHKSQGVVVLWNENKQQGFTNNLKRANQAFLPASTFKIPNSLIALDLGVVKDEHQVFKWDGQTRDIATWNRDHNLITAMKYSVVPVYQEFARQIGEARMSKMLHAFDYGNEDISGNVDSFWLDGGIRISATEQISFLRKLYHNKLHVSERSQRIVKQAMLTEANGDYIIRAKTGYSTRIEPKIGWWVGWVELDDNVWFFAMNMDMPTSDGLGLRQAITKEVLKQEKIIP

Binder	OD值 (OD450 at 1:1280000 dilution) [OD]	效价 (ELISA titer) (dilution factor (1:x))
第二单克隆抗体 (second anti-OXA-48 enzyme monoclonal antibody) (antibody, V domains shown) VH: EVQLVESGGGLVKPGGSLRLSCAASGFTFSGYWMHWVRQAPEKGLVWVAYINSDGSSTNYADSVKGRFTISRDNAKNTLFLQMNSLRAEDTAMYYCARGGGYSYGPFDYWGQGTSVTVSS VL: QSVLTQPSSASTSPGSSVKLSCTGTSSDIGNNDYVSWYQQYMGRPPTNIIYDVSRRPSGVSDRFSGSIDRSSNTAFLTVNNVQADDEADYYCSSYAGSSNLVFGGGTKLTV	> 0.5	1.28e+06
第一单克隆抗体 (first anti-OXA-48 enzyme monoclonal antibody) (antibody, V domains shown) VH: EVKLVESGGGLVQPGRSLRLSCATSGFTFADYSMTWVRQPPGKGLEWVGLIKRNAYGGTTEYAASVRGRFTISRDNSQSIAYLQMNTLRTEDTPAYYCLRGYSGYDWEGLDAFDVWGQGTMVTVSS VL: DIVMSQSPSSLAVSLGEKVTINCKSGQSVLFTSNNKNYLAWYQQKPGQPPKLLISWASTRESGVPDRFSGSGSGTDFTLAISSVQAEDVAVYYCQQYYSPGPFTFGQGTKVEIK	0.5	1.28e+06
